This note sets out measurements from patent US20180312587A1 (ADURO BIOTECH HOLDINGS EUROPE B V, published 2018).

Like-named read-outs stand apart in the source and are kept apart here.

The EC50 is the concentration that produces a half-maximal response. Read a low EC50 as a more potent agent. A word on the IC50: it is the concentration at which inhibition is half-maximal. Read a high IC50 as weaker potency.

The target in test [1] is T1, human SIRPγ (human, UniProt Q9P1W8 29-387).
T1 construct: on transfected CHO-K1 cells; also called hSIRPγ
T1 sequence (Q9P1W8 29-387 limits assumed): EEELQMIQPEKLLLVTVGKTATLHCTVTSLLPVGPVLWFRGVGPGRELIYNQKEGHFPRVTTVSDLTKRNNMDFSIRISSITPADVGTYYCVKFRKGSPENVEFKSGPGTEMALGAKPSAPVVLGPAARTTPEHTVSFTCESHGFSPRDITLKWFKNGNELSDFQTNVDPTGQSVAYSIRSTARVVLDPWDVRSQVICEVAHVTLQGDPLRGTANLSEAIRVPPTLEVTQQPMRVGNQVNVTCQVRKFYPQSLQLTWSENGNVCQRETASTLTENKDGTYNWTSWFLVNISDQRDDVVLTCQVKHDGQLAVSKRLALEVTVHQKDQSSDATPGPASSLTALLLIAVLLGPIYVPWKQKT
Description: flow cytometry, Jurkat E6.1 cells; nd = not detected. As for the experimental part:
Binding to hSIRPγ was assessed by flow cytometry using the Jurkat E6.1 T cell leukemia cell line (ECACC 88042803). Jurkat cells were seeded in 96-well round bottomed tissue culture plates and incubated for 40 minutes with the anti-hSIRPα antibodies (20 μg/mL and dilutions thereof) in PBS/1% BSA at 4° C. […] After this labeling procedure, cells were washed two times, resuspended in PBS/1% BSA, containing 0.1 μg/mL DAPI (BioLegend), and analysed by flow cytometry on the FACSVerse (BD Biosciences). Data were processed and analysed with FlowJo V10 software (FlowJo, LLC).
On the technique in general: A flow cytometer gives signals particle by particle.

Test [2] deals with T2, human SIRPα variant 2 (human, UniProt P78324 31-504).
T2 construct: full length ORF on transfected CHO-K1 cells; also called hSIRPαV2; SIRPαV2
T2 sequence (P78324 other isoform, or with tags, fused parts or gaps mutant limits assumed): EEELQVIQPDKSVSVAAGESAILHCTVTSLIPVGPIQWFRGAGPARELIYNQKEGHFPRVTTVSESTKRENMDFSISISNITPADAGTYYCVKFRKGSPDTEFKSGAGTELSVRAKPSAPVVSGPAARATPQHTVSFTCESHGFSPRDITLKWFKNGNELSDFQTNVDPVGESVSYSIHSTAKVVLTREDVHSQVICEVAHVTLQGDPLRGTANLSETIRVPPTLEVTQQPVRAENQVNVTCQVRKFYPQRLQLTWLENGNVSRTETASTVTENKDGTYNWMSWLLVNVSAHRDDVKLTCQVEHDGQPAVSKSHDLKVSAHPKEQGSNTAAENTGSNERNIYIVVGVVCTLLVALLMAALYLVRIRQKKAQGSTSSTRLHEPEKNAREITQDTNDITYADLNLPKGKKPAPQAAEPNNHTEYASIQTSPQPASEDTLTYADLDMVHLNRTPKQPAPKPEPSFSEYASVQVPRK
Put plainly: CELISA, CHO-K1 transfectants; nd = not detected. As for the experimental part:
(§1) Reactivity was confirmed using CHO-K1 cells (ATCC CCL-61) expressing a cDNA encoding the full length open reading frame of hSIRPαV1, hSIRPαV1(P74A), hSIRPαV2, and hSIRPβ1 subcloned into the pCI-neo vector (Promega, Madison, Wis.). CHO-K1.hSIRPαV1, CHO-K1.hSIRPαV1(P74A), CHO-K1.hSIRPαV2, and CHO-K1.hSIRPβ1 cells were seeded in culture medium (DMEM-F12 (Gibco) supplemented with 5% New Born Calf Serum (BioWest) and Pen/Strep (Gibco)) in 96-well flat-bottom tissue culture plates and incubated at 37° C., 5% CO₂ and 95% humidity for 24 hours. Subsequently, culture medium was removed and cells were incubated for 1 hour at 37° C., 5% CO₂ and 95% humidity with purified hSIRPα antibodies (used at 10 μg/mL and dilutions thereof). Next, cells were washed with PBS-T and incubated for 1 hour at 37° C., 5% CO₂ and 95% humidity with goat-anti-mouse IgG-HRP (Southern Biotech). Subsequently, cells were washed three times with PBS-T and immunoreactivity against hSIRPαV1, hSIRPαV1(P74A), hSIRPαV2, and hSIRPβ1 was visualized with TMB Stabilized Chromogen (Invitrogen). Reactions were stopped with 0.5 M H₂SO₄ and absorbances were read at 450 and 610 nm.

Test [3] has as its target T3, human SIRPα variant 1 (human, UniProt P78324 31-504).
T3 construct: full length ORF on transfected CHO-K1 or HEK293 cells; entry includes the signal peptide; also called hSIRPαV1; SIRPαV1
Put plainly: CELISA, CHO-K1 transfectants. As for the experimental part:
(§2) The specificity of monoclonal anti-hSIRPα antibodies (e.g., including the hSIRPα antibodies known in the art, KWAR23 ([…]. Patent CA2939293 A1), 18D5 (Patent WO2017/178653 A2), and various commercially available hSIRPα antibodies) for binding to hSIRPαV1, hSIRPαV1(P74A), and hSIRPβ1 was evaluated by CELISA. Reactivity was confirmed using CHO-K1 cells (ATCC CCL-61) expressing a cDNA encoding the full length open reading frame of hSIRPαV1, hSIRPαV1(P74A), and hSIRPβ1 subcloned into the pCI-neo vector (Promega, Madison, Wis.). CHO-K1.hSIRPαV1, CHO-K1.hSIRPαV1(P74A), and CHO-K1.hSIRPβ1 cells were seeded in culture medium (DMEM-F12 (Gibco) supplemented with 5% New Born Calf Serum (BioWest) and Pen/Strep (Gibco)) in 96-well flat-bottom tissue culture plates and incubated at 37° C., 5% CO₂ and 95% humidity for 24 hours. Subsequently, culture medium was removed and cells were incubated for 1 hour at 37° C., 5% CO₂ and 95% humidity with purified hSIRPα antibodies (used at 10 μg/ml and dilutions thereof). Next, cells were washed with PBS-T and incubated for 1 hour at 37° C., 5% CO₂ and 95% humidity with either goat-anti-mouse IgG-HRP (Southern Biotech), goat-anti-human IgG-HRP (Jackson Immuno Research), or goat-anti-rabbit IgG-HRP (Southern Biotech). Subsequently, cells were washed three times with PBS-T and immunoreactivity against hSIRPαV1, hSIRPαV1(P74A), and hSIRPβ1 was visualized with TMB Stabilized Chromogen (Invitrogen). Reactions were stopped with 0.5 M H₂SO₄ and absorbances were read at 450 and 610 nm.

Test [4] concerns the target T4, human SIRPβ1 (human, UniProt O00241 30-398).
T4 construct: also called hSIRPβ1
Put plainly: CELISA, CHO-K1 transfectants. As for the experimental part:
as §2

The target in test [5] is T5, hSIRPαV1(P74A) (human, UniProt P78324 31-504).
T5 construct: also called P74A variant of hSIRPαV1
T5 sequence (P78324 31-504 P74A limits assumed): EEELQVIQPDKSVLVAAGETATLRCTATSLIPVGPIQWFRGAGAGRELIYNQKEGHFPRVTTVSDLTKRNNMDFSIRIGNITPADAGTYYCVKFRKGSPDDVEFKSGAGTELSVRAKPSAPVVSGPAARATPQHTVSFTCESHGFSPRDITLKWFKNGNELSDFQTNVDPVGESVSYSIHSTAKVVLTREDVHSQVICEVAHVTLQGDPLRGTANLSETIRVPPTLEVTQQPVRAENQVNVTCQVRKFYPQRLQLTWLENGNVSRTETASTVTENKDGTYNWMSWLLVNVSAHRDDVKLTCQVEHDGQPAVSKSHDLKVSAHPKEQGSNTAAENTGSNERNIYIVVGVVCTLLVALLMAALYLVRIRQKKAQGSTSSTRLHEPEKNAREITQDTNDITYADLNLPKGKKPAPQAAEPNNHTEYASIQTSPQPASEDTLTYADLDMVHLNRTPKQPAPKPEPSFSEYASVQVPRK
Put plainly: CELISA, CHO-K1 transfectants. As for the experimental part:
as §2

Test [6] concerns the target T3, human SIRPα variant 1. Put plainly: CELISA, CHO-K1 transfectants. On the procedure:
as §1
This is another data set of the same source.

The target in test [7] is T4, human SIRPβ1. Description: CELISA, CHO-K1 transfectants. On the procedure:
as §1
This is another data set of the same source.

Test [8] has as its target T5, hSIRPαV1(P74A). Put plainly: CELISA, CHO-K1 transfectants. On the procedure:
as §1
The source holds these as a separate data set.

In test [9] the target is T3, human SIRPα variant 1. Description: flow cytometry, blockade of DyLight488-hCD47/Fc binding to U-937 cells. As for the experimental part: hCD47 blockade for the KWAR23, clone 18D5, and hSIRPα.40A antibodies was assessed by flow cytometry. For this purpose, THP-1 (ATCC TIB-202) and U-937 (ATCC CRL-1593.2) monocyte cell lines were used as the source of hSIRPα in the assay. THP-1 and U-937 cells were seeded in 96-well round bottomed tissue culture plates and incubated for 45 minutes with FcR Blocking Reagent (Miltenyi Biotec) and indicated anti-hSIRPα antibodies (20 μg/mL and dilutions thereof) in PBS/1% BSA at 4° C. […] After this labeling procedure, cells were washed two times, resuspended in PBS/1% BSA containing 0.1 μg/mL DAPI (BioLegend), and analysed by flow cytometry on the FACSVerse (BD Biosciences). Data were processed and analysed with FlowJo V10 software (FlowJo, LLC) and plotted using GraphPad Prism 6 (GraphPad Software, Inc.). Binding of recombinant hCD47 fused to an Fc domain of human IgG1 was monitored in the presence of increasing amounts of the anti-hSIRPα antibodies. […] IC50 values represent the concentration at which half of the inhibition is observed.

T3 sequence (P78324 31-504 limits assumed, change not shown): as the sequence (P78324 31-504 P74A limits assumed) above, with A44P counted along it
T4 sequence (O00241 30-398 limits assumed): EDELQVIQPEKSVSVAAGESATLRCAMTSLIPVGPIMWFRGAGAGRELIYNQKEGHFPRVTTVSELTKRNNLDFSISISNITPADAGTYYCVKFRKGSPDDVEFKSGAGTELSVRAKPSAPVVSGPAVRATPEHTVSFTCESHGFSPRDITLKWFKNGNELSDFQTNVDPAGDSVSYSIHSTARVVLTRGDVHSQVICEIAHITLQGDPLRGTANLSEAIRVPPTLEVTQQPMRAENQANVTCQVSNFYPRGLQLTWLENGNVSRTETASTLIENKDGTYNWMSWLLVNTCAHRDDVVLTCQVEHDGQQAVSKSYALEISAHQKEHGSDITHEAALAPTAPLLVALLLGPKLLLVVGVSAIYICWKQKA

B1: 18D5 (antibody, V domains shown)
VH: QVQLQQPGAELVRPGSSVKLSCKASGYTFTSYWVHWVKQRPIQGLEWIGNIDPSDSDTHYNQKFKDKASLTVDKSSSTAYMQLSSLTFEDSAVYYCVRGGTGTMAWFAYWGQGTLVTVSA
VL: DVVMTQTPLSLPVSLGDQASISCRSSQSLVHSYGNTYLYWYLQKPGQSPKLLIYRVSNRFSGVPDRFSGSGSGTDFTLKISRVEAEDLGVYFCFQGTHVPYTFGSGTKLEIK
notes: from WO2017/178653; also called clone 18D5
Take B1: the binding result in [1] was “no binding (tested: 20 µg/mL and dilutions thereof)”; in test [2], “no binding (tested: 10 µg/mL and dilutions thereof)”. Also, the EC50 in test [3] amounted to 0.128 nM; in test [4] it was 0.064 nM; in [5] it was 0.073 nM; in test [6], 0.134 nM; in test [7], 0.055 nM; in test [8], 0.055 nM. The 50% inhibitory concentration (IC50) in [9] was 1.52 nM.
